T1: IL-18 receptor (IL-18Rα and IL-18Rβ) (UniProt Q13478 19-541; O95256 20-599, limits assumed)
T1 sequence (looked up) 1: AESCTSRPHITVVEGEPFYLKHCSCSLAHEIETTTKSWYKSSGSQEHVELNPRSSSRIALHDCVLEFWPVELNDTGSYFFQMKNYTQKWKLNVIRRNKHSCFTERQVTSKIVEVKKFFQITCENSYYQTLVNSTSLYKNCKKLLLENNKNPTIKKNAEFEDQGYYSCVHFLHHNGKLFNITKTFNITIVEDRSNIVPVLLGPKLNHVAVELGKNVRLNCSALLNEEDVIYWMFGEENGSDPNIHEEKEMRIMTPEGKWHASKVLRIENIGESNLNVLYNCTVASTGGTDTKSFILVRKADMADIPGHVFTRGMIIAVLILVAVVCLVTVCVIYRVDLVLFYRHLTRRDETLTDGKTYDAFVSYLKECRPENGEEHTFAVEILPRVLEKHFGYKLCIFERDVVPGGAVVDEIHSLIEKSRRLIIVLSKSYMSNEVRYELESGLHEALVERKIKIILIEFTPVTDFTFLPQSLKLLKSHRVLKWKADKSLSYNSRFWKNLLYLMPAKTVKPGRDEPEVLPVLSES
T1 sequence (looked up) 2: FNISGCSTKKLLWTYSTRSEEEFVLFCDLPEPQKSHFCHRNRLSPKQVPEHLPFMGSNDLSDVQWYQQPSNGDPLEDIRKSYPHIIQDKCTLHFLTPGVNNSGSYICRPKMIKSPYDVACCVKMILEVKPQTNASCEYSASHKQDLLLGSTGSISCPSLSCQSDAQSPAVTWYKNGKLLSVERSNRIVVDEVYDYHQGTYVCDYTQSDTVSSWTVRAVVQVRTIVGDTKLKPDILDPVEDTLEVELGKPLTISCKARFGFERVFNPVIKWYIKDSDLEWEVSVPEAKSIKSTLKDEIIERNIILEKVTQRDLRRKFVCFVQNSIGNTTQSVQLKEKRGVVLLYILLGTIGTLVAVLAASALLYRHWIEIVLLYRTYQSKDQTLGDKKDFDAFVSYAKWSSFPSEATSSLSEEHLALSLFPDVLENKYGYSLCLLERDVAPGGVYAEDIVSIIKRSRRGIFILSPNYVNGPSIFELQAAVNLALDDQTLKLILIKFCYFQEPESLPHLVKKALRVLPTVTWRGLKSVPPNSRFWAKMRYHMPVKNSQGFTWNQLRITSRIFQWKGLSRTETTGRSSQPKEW

T2: human IL-18 binding protein (human, UniProt O95998 31-194)
T2 sequence (looked up): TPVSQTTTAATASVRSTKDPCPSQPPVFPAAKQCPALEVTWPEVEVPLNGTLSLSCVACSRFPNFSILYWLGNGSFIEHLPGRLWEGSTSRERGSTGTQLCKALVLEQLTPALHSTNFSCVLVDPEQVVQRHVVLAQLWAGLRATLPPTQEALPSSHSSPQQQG

T3: IL-18 receptors on HEK-Blue IL-18 reporter cells (UniProt Q13478 19-541; O95256 20-599, limits assumed)
T3 sequence (looked up) 1: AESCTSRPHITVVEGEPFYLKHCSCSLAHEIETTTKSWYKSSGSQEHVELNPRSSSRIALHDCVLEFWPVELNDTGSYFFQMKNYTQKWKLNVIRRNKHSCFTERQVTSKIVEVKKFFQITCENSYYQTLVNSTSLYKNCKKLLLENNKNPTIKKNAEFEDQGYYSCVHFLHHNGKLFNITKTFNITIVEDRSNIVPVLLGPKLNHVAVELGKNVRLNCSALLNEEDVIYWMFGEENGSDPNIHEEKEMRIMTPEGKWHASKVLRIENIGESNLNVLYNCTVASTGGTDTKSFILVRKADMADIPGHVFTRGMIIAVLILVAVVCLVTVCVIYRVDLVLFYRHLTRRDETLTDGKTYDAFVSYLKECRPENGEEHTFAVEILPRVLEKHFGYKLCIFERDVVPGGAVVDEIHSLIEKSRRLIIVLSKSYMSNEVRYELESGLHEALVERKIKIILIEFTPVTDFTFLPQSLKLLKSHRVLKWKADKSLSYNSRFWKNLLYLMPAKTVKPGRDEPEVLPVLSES
T3 sequence (looked up) 2: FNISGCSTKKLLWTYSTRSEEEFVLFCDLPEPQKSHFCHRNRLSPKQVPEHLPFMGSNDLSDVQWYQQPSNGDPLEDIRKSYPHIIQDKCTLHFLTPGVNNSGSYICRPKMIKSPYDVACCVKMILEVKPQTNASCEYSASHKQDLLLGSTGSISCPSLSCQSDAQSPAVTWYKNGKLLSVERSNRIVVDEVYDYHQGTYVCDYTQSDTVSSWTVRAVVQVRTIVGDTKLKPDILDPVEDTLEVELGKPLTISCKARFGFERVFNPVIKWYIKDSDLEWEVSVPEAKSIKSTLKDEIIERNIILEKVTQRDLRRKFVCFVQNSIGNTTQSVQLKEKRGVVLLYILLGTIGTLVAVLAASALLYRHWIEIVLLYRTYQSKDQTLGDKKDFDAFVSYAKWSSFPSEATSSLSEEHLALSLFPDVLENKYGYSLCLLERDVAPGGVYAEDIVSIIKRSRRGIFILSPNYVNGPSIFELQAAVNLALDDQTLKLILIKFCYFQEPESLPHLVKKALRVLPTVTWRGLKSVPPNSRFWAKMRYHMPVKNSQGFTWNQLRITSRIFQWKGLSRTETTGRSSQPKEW


How the values were obtained:
Assay in all cases: cell-based or functional assay
[1] = biological target: T1, IL-18 receptor (IL-18Rα and IL-18Rβ)
[2] = biological target: T2, human IL-18 binding protein
[3] = biological target: T3, IL-18 receptors on HEK-Blue IL-18 …

Row | Binder | EC50 (pM), PBMC IFN gamma assay, average [1] [pM] | EC50 (pM), PBMC IFN gamma assay, run 1 [1] [pM] | EC50 (pM), PBMC IFN gamma assay, run 2 [1] [pM] | EC50 (pM), PBMC IFN gamma assay, run 3 [1] [pM] | PBMC IFN gamma EC50 relative to WT-IL18, average [1] | PBMC IFN gamma EC50 relative to WT-IL18, run 1 [1] | PBMC IFN gamma EC50 relative to WT-IL18, run 2 [1] | PBMC IFN gamma EC50 relative to WT-IL18, run 3 [1] | HEK-Blue activity, +100 nM BP, DF-10000 [2] | HEK-Blue activity, +100 nM BP, DF-100,000 [2] | HEK-Blue activity, +100 nM BP, DF-1,000,000 [2] | Ratio (-BP/+BP), DF-10000 [2] | Ratio (-BP/+BP), DF-100,000 [2] | Ratio (-BP/+BP), DF-1,000,000 [2] | HEK-Blue activity, No BP, DF-10000 [3] | HEK-Blue activity, No BP, DF-100,000 [3] | HEK-Blue activity, No BP, DF-1,000,000 [3]
1 | hIL18 (G3V, E6K, K53A, M60K)- KiH (Fc fusion) YFVKLKSKLSVIRNLNDQVLFIDQGNRPLFEDMTDSDMRDNAPRTIFIISMYADSQPRGKAVTISVKSEKISTLSSENKIISFKEMNPPDNIKDTKSDIIFFQRSVPGHDNKMQFESSSYEGYFLASEKERDLFKLILKKEDELGDRSIMFTVQNED | 5.46 | 8.83 | 3.21 | 4.33 | 0.03 | 0.04 | 0.03 | 0.03 |  |  |  |  |  |  |  |  | 
2 | yeast display IL-18 variant K53S, S55F, R104K, H109Y (ligand) YFGKLESKLSVIRNLNDQVLFIDQGNRPLFEDMTDSDMRDNAPRTIFIISMYSDFQPRGMAVTISVKSEKISTLSSENKIISFKEMNPPDNIKDTKSDIIFFQKSVPGYDNKMQFESSSYEGYFLASEKERDLFKLILKKEDELGDRSIMFTVQNED |  |  |  |  |  |  |  |  | 0.14 | 0.09 | 0.09 | 3.08 | 1.18 | 0.95 | 0.43 | 0.11 | 0.09
3 | hIL18 (G3T, E6K, K53A, M60K) - KiH (Fc fusion) YFTKLKSKLSVIRNLNDQVLFIDQGNRPLFEDMTDSDMRDNAPRTIFIISMYADSQPRGKAVTISVKSEKISTLSSENKIISFKEMNPPDNIKDTKSDIIFFQRSVPGHDNKMQFESSSYEGYFLASEKERDLFKLILKKEDELGDRSIMFTVQNED | 16 | 13.3 | 14 | 20.7 | 0.11 | 0.06 | 0.13 | 0.13 |  |  |  |  |  |  |  |  | 
4 | yeast display IL-18 variant T34I, S36V, D40I, N41M, K53G, S55Y (ligand) YFGKLESKLSVIRNLNDQVLFIDQGNRPLFEDMIDVDMRIMAPRTIFIISMYGDYQPRGMAVTISVKSEKISTLSSENKIISFKEMNPPDNIKDTKSDIIFFQRSVPGHDNKMQFESSSYEGYFLASEKERDLFKLILKKEDELGDRSIMFTVQNED |  |  |  |  |  |  |  |  | 0.21 | 0.1 | 0.09 | 1.46 | 1.11 | 1.52 | 0.3 | 0.11 | 0.14
5 | hIL18 (G3T, K53A, M60K) - KiH (Fc fusion) YFTKLESKLSVIRNLNDQVLFIDQGNRPLFEDMTDSDMRDNAPRTIFIISMYADSQPRGKAVTISVKSEKISTLSSENKIISFKEMNPPDNIKDTKSDIIFFQRSVPGHDNKMQFESSSYEGYFLASEKERDLFKLILKKEDELGDRSIMFTVQNED | 195 | 209 | 214 | 162 | 1.3 | 0.87 | 2.04 | 1 |  |  |  |  |  |  |  |  | 
6 | yeast display IL-18 variant L5W, S7Y, K53H, S55M (ligand) YFGKWEYKLSVIRNLNDQVLFIDQGNRPLFEDMTDSDMRDNAPRTIFIISMYHDMQPRGMAVTISVKSEKISTLSSENKIISFKEMNPPDNIKDTKSDIIFFQRSVPGHDNKMQFESSSYEGYFLASEKERDLFKLILKKEDELGDRSIMFTVQNED |  |  |  |  |  |  |  |  | 0.12 | 0.12 | 0.13 | 4.04 | 1.41 | 1.24 | 0.5 | 0.16 | 0.16
7 | yeast display IL-18 variant K53Y, S55G (ligand) YFGKLESKLSVIRNLNDQVLFIDQGNRPLFEDMTDSDMRDNAPRTIFIISMYYDGQPRGMAVTISVKSEKISTLSSENKIISFKEMNPPDNIKDTKSDIIFFQRSVPGHDNKMQFESSSYEGYFLASEKERDLFKLILKKEDELGDRSIMFTVQNED |  |  |  |  |  |  |  |  | 0.21 | 0.16 | 0.13 | 1.71 | 0.88 | 0.94 | 0.36 | 0.14 | 0.12
8 | hIL18 (G3V, E6K, K53S, M60K) - KiH (Fc fusion) YFVKLKSKLSVIRNLNDQVLFIDQGNRPLFEDMTDSDMRDNAPRTIFIISMYSDSQPRGKAVTISVKSEKISTLSSENKIISFKEMNPPDNIKDTKSDIIFFQRSVPGHDNKMQFESSSYEGYFLASEKERDLFKLILKKEDELGDRSIMFTVQNED | 16.8 | 17.8 | 21.6 | 10.9 | 0.12 | 0.07 | 0.21 | 0.07 |  |  |  |  |  |  |  |  | 
9 | yeast display IL-18 variant K53Q, D54N, S55M, Q56H (ligand) YFGKLESKLSVIRNLNDQVLFIDQGNRPLFEDMTDSDMRDNAPRTIFIISMYQNMHPRGMAVTISVKSEKISTLSSENKIISFKEMNPPDNIKDTKSDIIFFQRSVPGHDNKMQFESSSYEGYFLASEKERDLFKLILKKEDELGDRSIMFTVQNED |  |  |  |  |  |  |  |  | 0.21 | 0.11 | 0.09 | 2.21 | 1.16 | 1.06 | 0.46 | 0.13 | 0.09
10 | yeast display IL-18 variant K53N, S55M, R104S, P107A (ligand) YFGKLESKLSVIRNLNDQVLFIDQGNRPLFEDMTDSDMRDNAPRTIFIISMYNDMQPRGMAVTISVKSEKISTLSSENKIISFKEMNPPDNIKDTKSDIIFFQSSVAGHDNKMQFESSSYEGYFLASEKERDLFKLILKKEDELGDRSIMFTVQNED |  |  |  |  |  |  |  |  | 0.15 | 0.12 | 0.11 | 5.37 | 1.93 | 1.08 | 0.8 | 0.24 | 0.12
11 | hIL18 (G3V, K53A, M60K) - KiH (Fc fusion) YFVKLESKLSVIRNLNDQVLFIDQGNRPLFEDMTDSDMRDNAPRTIFIISMYADSQPRGKAVTISVKSEKISTLSSENKIISFKEMNPPDNIKDTKSDIIFFQRSVPGHDNKMQFESSSYEGYFLASEKERDLFKLILKKEDELGDRSIMFTVQNED | 60.6 | 47.3 | 75 | 59.4 | 0.43 | 0.2 | 0.71 | 0.37 |  |  |  |  |  |  |  |  | 
12 | yeast display IL-18 variant K53Y, S55Y (ligand) YFGKLESKLSVIRNLNDQVLFIDQGNRPLFEDMTDSDMRDNAPRTIFIISMYYDYQPRGMAVTISVKSEKISTLSSENKIISFKEMNPPDNIKDTKSDIIFFQRSVPGHDNKMQFESSSYEGYFLASEKERDLFKLILKKEDELGDRSIMFTVQNED |  |  |  |  |  |  |  |  | 0.24 | 0.14 | 0.21 | 1.57 | 1.21 | 0.57 | 0.38 | 0.17 | 0.12
